B1: ADI-34132 (antibody, V domains shown)
VH: QVQLVQSGAEVKKPGSSVKVSCKASGGTFSSYAISWVRQAPGQGLEWMGGIIPIFGTANYAQKFQGRVTITADESTSTAYMELSSLRSEDTAVYYCARGAPNYYGSGGYDDGWFDPWGQGTLVTVSS
VL: DIQLTQSPSSLSASVGDRVTITCRASQSISSYLNWYQQKPGKAPKLLIYAASNLQSGVPSRFSGSGSGTDFTLTISSLQPEDFATYYCQQTLHTPITFGGGTKVEIK
notes: anti-ID IgG
B2: ADI-34137 (antibody, V domains shown)
VH: B1 VH
VL: EIVLTQSPGTLSLSPGERATLSCRASQSVSSSYLAWYQQKPGQAPRLLIYGASSRATGIPDRFSGSGSGTDFTLTISRLEPEDFAVYYCQQFGRFPTFGGGTKVEIK
notes: anti-ID IgG

Tests used:
ADI-67447 = target: T1, ADI-67447; test: SPR Carterra avidity, yeast anti-ID
T1 construct: anti-CD3 antibody made in CHO cells, captured by anti-human Fc
Experimental: (§1) Kinetic analysis was conducted at 25° C. in an HBSTE running buffer system (Carterra Cat #3630) using a Carterra LSA (Carterra USA, Salt Lake City, UT). The sample compartment was maintained at 20° C. for the duration of each experiment.
(§2) For antibody capture experiments, a goat anti-human Fc antibody (Jackson ImmunoResearch) was covalently coupled to an HC30M sensor chip surface via standard amine coupling (1:1 EDC:NHS) and then blocked with ethanolamine (1.0 M, pH 8.5). Covalent coupling steps were performed in 25 mM MES buffer (Carterra, Cat #3625) plus 0.05% Tween20. The anti-CD3 antibodies (100 nM in running buffer) were flowed over discrete regions of interest on the chip surface for 5 minutes. […] Dissociation of the anti-idiotype antibodies was monitored for 300s. Several blank buffer samples were injected over the entire chip surface at the start of each non-regenerative kinetic cycle. The preceding blank buffer injection was used for blank surface subtraction. At the end of each non-regenerative kinetic cycle, all surfaces were regenerated via two 30s injections of 10 mM glycine, pH 1.7.
(§3) For data processing and fitting, sensorgrams were double reference subtracted with a baseline drift correction of 4 RU. Sensorgrams were y-aligned and baseline corrected, filtered and cropped to include only the association and dissociation steps. Data was fitted to a 1:1 binding model using Carterra Kinetics Data Analysis software version 1.7.1.3055.

ADI-26913 IgG = target: T2, ADI-26913 IgG; test: SPR Carterra avidity, yeast anti-ID
T2 construct: anti-CD3 IgG
Experimental: as §1, §2, §3

ADI-26943 = target: T3, ADI-26943; test: SPR Carterra avidity, yeast anti-ID
T3 construct: anti-CD3 antibody made in CHO cells, captured by anti-human Fc
Experimental: as §1, §2, §3

ADI-74965 = target: T4, ADI-74965; test: SPR Carterra avidity, yeast anti-ID
T4 construct: pH-dependent anti-CD3 antibody made in CHO cells
Experimental: as §1, §2, §3

ADI-48576 = target: T5, ADI-48576; test: SPR Carterra avidity, yeast anti-ID
T5 construct: pH-dependent anti-CD3 antibody made in CHO cells
Experimental: as §1, §2, §3

CTL-62223 = target: T6, CTL-62223; test: SPR Carterra avidity, yeast anti-ID
T6 construct: also called mosunetuzumab
Experimental: as §1, §2, §3

ADI-76358 = target: T7, ADI-76358; test: SPR Carterra avidity, yeast anti-ID
T7 construct: anti-CD3 antibody made in CHO cells, captured by anti-human Fc
Experimental: as §1, §2, §3

ADI-26912 = target: T8, ADI-26912; test: SPR Carterra avidity, yeast anti-ID
T8 construct: anti-CD3 antibody made in CHO cells, captured by anti-human Fc
Experimental: as §1, §2, §3

ADI-76359 [1] = target: T9, ADI-76359; test: SPR Carterra avidity, yeast anti-ID
T9 construct: anti-CD3 antibody made in CHO cells, captured by anti-human Fc
Experimental: as §1, §2, §3

ADI-26915 = target: T10, ADI-26915; test: SPR Carterra avidity, yeast anti-ID
T10 construct: anti-CD3 antibody made in CHO cells, captured by anti-human Fc
Experimental: as §1, §2, §3

ADI-26920 IgG [2] = target: T11, ADI-26920 IgG; test: SPR Carterra avidity, yeast anti-ID
T11 construct: anti-CD3 IgG
Experimental: as §1, §2, §3

ADI-76360 = target: T12, ADI-76360; test: SPR Carterra avidity, yeast anti-ID
T12 construct: anti-CD3 antibody made in CHO cells, captured by anti-human Fc
Experimental: as §1, §2, §3

ADI-76357 = target: T13, ADI-76357; test: SPR Carterra avidity, yeast anti-ID
T13 construct: anti-CD3 antibody made in CHO cells, captured by anti-human Fc
Experimental: as §1, §2, §3

ADI-48650 = target: T14, ADI-48650; test: SPR Carterra avidity, yeast anti-ID
T14 construct: pH-dependent anti-CD3 antibody made in CHO cells
Experimental: as §1, §2, §3

ADI-48592 = target: T15, ADI-48592; test: SPR Carterra avidity, yeast anti-ID
T15 construct: pH-dependent anti-CD3 antibody made in CHO cells
Experimental: as §1, §2, §3

ADI-74968 = target: T16, ADI-74968; test: SPR Carterra avidity, yeast anti-ID
T16 construct: pH-dependent anti-CD3 antibody made in CHO cells
Experimental: as §1, §2, §3

ADI-50024 = target: T17, ADI-50024; test: SPR Carterra avidity, yeast anti-ID
T17 construct: anti-CD3 antibody made in CHO cells, captured by anti-human Fc
Experimental: as §1, §2, §3

ADI-74966 = target: T18, ADI-74966; test: SPR Carterra avidity, yeast anti-ID
T18 construct: pH-dependent anti-CD3 antibody made in CHO cells
Experimental: as §1, §2, §3

ADI-26906 IgG = target: T19, ADI-26906 IgG; test: SPR Carterra avidity, yeast anti-ID
T19 construct: anti-CD3 IgG
Experimental: as §1, §2, §3

ADI-70330 = target: T20, ADI-70330; test: SPR Carterra avidity, yeast anti-ID
T20 construct: anti-CD3 antibody made in CHO cells, captured by anti-human Fc
Experimental: as §1, §2, §3

ADI-26909 = target: T21, ADI-26909; test: SPR Carterra avidity, yeast anti-ID
T21 construct: anti-CD3 antibody made in CHO cells, captured by anti-human Fc
Experimental: as §1, §2, §3

ADI-70327 = target: T22, ADI-70327; test: SPR Carterra avidity, yeast anti-ID
T22 construct: anti-CD3 antibody made in CHO cells, captured by anti-human Fc
Experimental: as §1, §2, §3

ADI-26921 IgG [3] = target: T23, ADI-26921 IgG; test: SPR Carterra avidity, yeast anti-ID
T23 construct: anti-CD3 IgG
Experimental: as §1, §2, §3

ADI-67445 = target: T24, ADI-67445; test: SPR Carterra avidity, yeast anti-ID
T24 construct: anti-CD3 antibody made in CHO cells, captured by anti-human Fc
Experimental: as §1, §2, §3

ADI-48587 = target: T25, ADI-48587; test: SPR Carterra avidity, yeast anti-ID
T25 construct: pH-dependent anti-CD3 antibody made in CHO cells
Experimental: as §1, §2, §3

ADI-76361 = target: T26, ADI-76361; test: SPR Carterra avidity, yeast anti-ID
T26 construct: anti-CD3 antibody made in CHO cells, captured by anti-human Fc
Experimental: as §1, §2, §3

ADI-26916 IgG = target: T27, ADI-26916 IgG; test: SPR Carterra avidity, yeast anti-ID
T27 construct: anti-CD3 IgG
Experimental: as §1, §2, §3

ADI-76362 = target: T28, ADI-76362; test: SPR Carterra avidity, yeast anti-ID
T28 construct: anti-CD3 antibody made in CHO cells, captured by anti-human Fc
Experimental: as §1, §2, §3

ADI-26924 = target: T29, ADI-26924; test: SPR Carterra avidity, yeast anti-ID
T29 construct: anti-CD3 antibody made in CHO cells, captured by anti-human Fc
Experimental: as §1, §2, §3

ADI-67450 = target: T30, ADI-67450; test: SPR Carterra avidity, yeast anti-ID
T30 construct: anti-CD3 antibody made in CHO cells, captured by anti-human Fc
Experimental: as §1, §2, §3

ADI-74967 [4] = target: T31, ADI-74967; test: SPR Carterra avidity, yeast anti-ID
T31 construct: pH-dependent anti-CD3 antibody made in CHO cells
Experimental: as §1, §2, §3

ADI-70326 = target: T32, ADI-70326; test: SPR Carterra avidity, yeast anti-ID
T32 construct: anti-CD3 antibody made in CHO cells, captured by anti-human Fc
Experimental: as §1, §2, §3

ADI-22523 IgG = target: T33, ADI-22523 IgG; test: BLI; tip anti-ID IgG, solution ADI-22523 IgG
T33 construct: anti-CD3 IgG
Experimental: (§4) ForteBio affinity measurements were performed generally as previously described (Estep et al., MAbs. 2013 5(2):270-8). Briefly, ForteBio affinity measurements were performed by loading antibody IgG or Fabs on-line onto AHC sensors. Sensors were equilibrated off-line in assay buffer for 30 minutes and then monitored on-line for 60 seconds for baseline establishment. For avid binding measurement, sensors with loaded antibodies were exposed to IgG or Fab solutions for 3 minutes, afterwards they were transferred to assay buffer for 3 minutes for off-rate measurement. Kinetics data were fit using a 1:1 binding model in the data analysis software provided by ForteBio to obtain equilibrium dissociation constant (KD=koff/kₒₙ) values. In each column, tip-immobilized antibodies are listed first and solution antibodies second.

CTL-62227 = target: T34, CTL-62227; test: SPR Carterra, yeast anti-ID
T34 construct: also called odronextamab
Experimental: as §1, §2, §3

CTL-62240 = target: T35, CTL-62240; test: SPR Carterra, yeast anti-ID
T35 construct: also called ONO-4685
Experimental: as §1, §2, §3

CTL-62228 = target: T36, CTL-62228; test: SPR Carterra, yeast anti-ID
T36 construct: also called glofitamab
Experimental: as §1, §2, §3

ADI-26919 [5] = target: T37, ADI-26919; test: SPR Carterra avidity, yeast anti-ID, *koff limit
T37 construct: anti-CD3 antibody made in CHO cells, captured by anti-human Fc
Experimental: as §1, §2, §3

ADI-26919 [6] = target: T37, ADI-26919; test: SPR Carterra avidity, yeast anti-ID
Experimental: as §1, §2, §3

ADI-22523 Fab = target: T38, ADI-22523 Fab; test: BLI; tip anti-ID IgG, solution ADI-22523 Fab
T38 construct: anti-CD3 Fab by papain digestion of the IgG
Experimental: as §4

ADI-76359 [7] = target: T9, ADI-76359; test: SPR Carterra avidity, yeast anti-ID, *koff limit
Experimental: as §1, §2, §3

ADI-26920 IgG [8] = target: T11, ADI-26920 IgG; test: SPR Carterra avidity, yeast anti-ID, *koff limit
Experimental: as §1, §2, §3

ADI-26921 IgG [9] = target: T23, ADI-26921 IgG; test: SPR Carterra avidity, yeast anti-ID, *koff limit
Experimental: as §1, §2, §3

ADI-74967 [10] = target: T31, ADI-74967; test: SPR Carterra avidity, yeast anti-ID, *koff limit
Experimental: as §1, §2, §3

T15 sequence (VH, as listed by the source, chain 1 of 2): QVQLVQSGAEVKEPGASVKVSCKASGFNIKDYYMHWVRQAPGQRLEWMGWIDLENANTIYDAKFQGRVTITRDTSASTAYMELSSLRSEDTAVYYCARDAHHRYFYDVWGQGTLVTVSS
T15 sequence (VL, as listed by the source, chain 2 of 2): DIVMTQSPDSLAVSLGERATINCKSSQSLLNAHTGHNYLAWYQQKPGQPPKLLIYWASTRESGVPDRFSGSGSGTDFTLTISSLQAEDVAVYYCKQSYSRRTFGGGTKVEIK
T11 sequence (VH, as listed by the source limits assumed, chain 1 of 2): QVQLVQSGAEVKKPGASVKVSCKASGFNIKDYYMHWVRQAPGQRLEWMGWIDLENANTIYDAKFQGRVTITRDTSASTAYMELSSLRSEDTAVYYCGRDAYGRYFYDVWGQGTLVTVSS
T11 sequence (VL, as listed by the source limits assumed, chain 2 of 2): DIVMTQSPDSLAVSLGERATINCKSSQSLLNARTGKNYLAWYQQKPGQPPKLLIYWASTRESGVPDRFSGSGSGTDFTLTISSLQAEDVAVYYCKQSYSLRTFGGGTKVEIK
T12 sequence (VH, as listed by the source, chain 1 of 2): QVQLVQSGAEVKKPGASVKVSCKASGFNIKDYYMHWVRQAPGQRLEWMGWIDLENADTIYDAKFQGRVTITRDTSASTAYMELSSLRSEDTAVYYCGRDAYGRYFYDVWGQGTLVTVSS
T21 sequence (VH, as listed by the source limits assumed, chain 1 of 2): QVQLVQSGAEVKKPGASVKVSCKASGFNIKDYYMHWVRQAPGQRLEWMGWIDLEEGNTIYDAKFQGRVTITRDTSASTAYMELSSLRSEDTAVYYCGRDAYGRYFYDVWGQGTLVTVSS
T21 sequence (VL, as listed by the source limits assumed, chain 2 of 2): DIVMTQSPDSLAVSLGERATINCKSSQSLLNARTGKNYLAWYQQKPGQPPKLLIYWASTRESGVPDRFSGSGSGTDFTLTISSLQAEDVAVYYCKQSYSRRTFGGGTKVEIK
T20 sequence (VH, as listed by the source limits assumed, chain 1 of 2): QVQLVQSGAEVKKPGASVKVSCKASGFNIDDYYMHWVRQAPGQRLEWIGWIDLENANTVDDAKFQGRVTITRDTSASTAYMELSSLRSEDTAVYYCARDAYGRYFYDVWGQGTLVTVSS
T20 sequence (VL, as listed by the source limits assumed, chain 2 of 2): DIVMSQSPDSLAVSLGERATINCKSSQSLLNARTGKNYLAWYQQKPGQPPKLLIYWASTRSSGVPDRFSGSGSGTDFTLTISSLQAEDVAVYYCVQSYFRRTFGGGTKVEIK
T13 sequence (VH, as listed by the source, chain 1 of 2): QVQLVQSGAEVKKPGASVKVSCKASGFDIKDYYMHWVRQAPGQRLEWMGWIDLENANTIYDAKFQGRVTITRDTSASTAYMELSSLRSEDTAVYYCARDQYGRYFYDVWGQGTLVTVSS
T2 sequence (VH, as listed by the source limits assumed, chain 1 of 2): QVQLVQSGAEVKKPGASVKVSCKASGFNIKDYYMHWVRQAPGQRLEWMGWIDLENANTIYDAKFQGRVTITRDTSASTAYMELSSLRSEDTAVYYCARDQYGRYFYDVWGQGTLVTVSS
T28 sequence (VH, as listed by the source, chain 1 of 2): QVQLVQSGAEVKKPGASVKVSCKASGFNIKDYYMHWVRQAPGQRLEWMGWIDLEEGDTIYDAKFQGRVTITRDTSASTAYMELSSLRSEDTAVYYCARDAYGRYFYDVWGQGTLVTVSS
T1 sequence (VH, as listed by the source limits assumed, chain 1 of 2): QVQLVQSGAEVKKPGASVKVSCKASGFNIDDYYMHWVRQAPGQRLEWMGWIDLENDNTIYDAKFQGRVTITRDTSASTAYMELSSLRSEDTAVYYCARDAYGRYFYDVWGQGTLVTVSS
T7 sequence (VH, as listed by the source, chain 1 of 2): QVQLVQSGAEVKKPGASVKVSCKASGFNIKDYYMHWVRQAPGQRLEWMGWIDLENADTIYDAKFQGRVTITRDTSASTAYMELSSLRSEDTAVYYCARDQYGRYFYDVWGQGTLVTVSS
T14 sequence (VH, as listed by the source, chain 1 of 2): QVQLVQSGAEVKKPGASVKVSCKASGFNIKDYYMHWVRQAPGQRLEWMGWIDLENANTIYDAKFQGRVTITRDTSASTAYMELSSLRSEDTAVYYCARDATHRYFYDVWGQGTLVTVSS
T14 sequence (VL, as listed by the source, chain 2 of 2): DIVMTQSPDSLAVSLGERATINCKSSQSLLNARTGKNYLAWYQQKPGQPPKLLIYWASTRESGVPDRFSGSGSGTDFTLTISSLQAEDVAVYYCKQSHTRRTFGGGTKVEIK
T6 sequence (VH, as listed by the source, chain 1 of 2): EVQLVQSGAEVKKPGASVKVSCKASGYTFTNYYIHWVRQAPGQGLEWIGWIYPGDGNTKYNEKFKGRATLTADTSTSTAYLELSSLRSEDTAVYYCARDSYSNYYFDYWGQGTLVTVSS
T6 sequence (VL, as listed by the source, chain 2 of 2): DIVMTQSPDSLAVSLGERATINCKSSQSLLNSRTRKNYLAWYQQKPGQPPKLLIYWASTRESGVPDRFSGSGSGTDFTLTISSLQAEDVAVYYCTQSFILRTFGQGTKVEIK
T26 sequence (VH, as listed by the source, chain 1 of 2): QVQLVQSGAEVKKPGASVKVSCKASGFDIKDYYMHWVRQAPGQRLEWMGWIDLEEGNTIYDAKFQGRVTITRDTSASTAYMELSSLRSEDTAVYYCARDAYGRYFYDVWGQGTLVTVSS
T22 sequence (VH, as listed by the source limits assumed, chain 1 of 2): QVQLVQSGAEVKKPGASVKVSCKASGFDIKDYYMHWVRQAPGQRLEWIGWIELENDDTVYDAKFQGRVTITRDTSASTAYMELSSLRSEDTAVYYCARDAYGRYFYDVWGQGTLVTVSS
T8 sequence (VH, as listed by the source, chain 1 of 2): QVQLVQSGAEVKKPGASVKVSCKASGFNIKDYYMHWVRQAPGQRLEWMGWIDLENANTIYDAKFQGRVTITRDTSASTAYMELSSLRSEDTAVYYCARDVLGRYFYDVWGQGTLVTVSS
T16 sequence (VH, as listed by the source, chain 1 of 2): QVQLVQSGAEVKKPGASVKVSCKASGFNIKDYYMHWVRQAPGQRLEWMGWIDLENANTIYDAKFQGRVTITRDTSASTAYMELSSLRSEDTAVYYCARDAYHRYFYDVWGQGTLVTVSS
T16 sequence (VL, as listed by the source, chain 2 of 2): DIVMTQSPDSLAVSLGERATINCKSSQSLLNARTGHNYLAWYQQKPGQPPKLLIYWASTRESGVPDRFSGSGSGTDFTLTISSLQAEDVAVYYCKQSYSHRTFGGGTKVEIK
T4 sequence (VL, as listed by the source, chain 2 of 2): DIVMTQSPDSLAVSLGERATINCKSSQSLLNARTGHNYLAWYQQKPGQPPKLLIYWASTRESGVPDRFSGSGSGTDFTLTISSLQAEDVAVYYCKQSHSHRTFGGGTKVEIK
T24 sequence (VH, as listed by the source limits assumed, chain 1 of 2): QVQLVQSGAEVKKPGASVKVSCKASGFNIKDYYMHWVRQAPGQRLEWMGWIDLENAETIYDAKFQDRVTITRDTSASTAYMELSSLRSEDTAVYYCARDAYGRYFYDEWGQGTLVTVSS

Binder | Kd (ADI-67447) [nM] | Kd (ADI-26913 IgG) [nM] | Kd (ADI-26943) [nM] | binding result (ADI-74965) | binding result (ADI-48576) | Kd (CTL-62223) [nM] | binding result (ADI-26912) | Kd (ADI-76360) [nM] | Kd (ADI-76357) [nM] | binding result (ADI-48650) | binding result (ADI-48592) | Kd (ADI-50024) [nM] | Kd (ADI-74966) [nM] | Kd (ADI-26906 IgG) [nM] | Kd (ADI-26909) [nM] | Kd (ADI-67445) [nM] | Kd (ADI-76361) [nM] | Kd (ADI-26916 IgG) [nM] | Kd (ADI-76362) [nM] | Kd (ADI-26924) [nM] | further results
B1 | 0.56 | 0.93 | 0.15 | binds | binds | 0.99 | binds | 0.61 | 0.57 | binds | binds | 0.35 | 0.58 | 0.16 | 0.9 | 0.65 | 0.15 | 0.6 | 0.82 | 0.2 | binding result (ADI-76358): binds; Kd (ADI-76359 [1]): 0.12 nM; binding result (ADI-26915): binds; Kd (ADI-26920 IgG [2]): 0.15 nM; binding result (ADI-74968): binds; binding result (ADI-70330): binds; binding result (ADI-70327): binds; Kd (ADI-26921 IgG [3]): 0.36 nM; binding result (ADI-48587): binds; binding result (ADI-67450): binds; Kd (ADI-74967 [4]): 0.28 nM; binding result (ADI-70326): binds; Kd (ADI-22523 IgG): 84.9 nM; binding result (CTL-62227): no binding (tested: up to 200 nM); binding result (CTL-62240): no binding (tested: up to 200 nM); binding result (CTL-62228): no binding (tested: up to 200 nM); Kd (ADI-26919 [5]): 0.044 nM
B2 | 0.22 | 0.3 | 0.17 | binds | binds | 1.8 | binds | 0.082 | 0.086 | binds | binds | 0.39 | 0.21 | 0.33 | 0.32 | 0.37 | 0.054 | 0.31 | 0.22 | 0.19 | Kd (ADI-76358): 0.96 nM; Kd (ADI-26915): 14 nM; Kd (ADI-26919 [6]): 0.14 nM; Kd (ADI-74968): 0.76 nM; Kd (ADI-70330): 0.3 nM; Kd (ADI-70327): 0.95 nM; Kd (ADI-48587): 0.88 nM; Kd (ADI-67450): 0.92 nM; binding result (ADI-70326): binds; Kd (ADI-22523 Fab): 14.8 nM; Kd (ADI-22523 IgG): 0.63 nM; Kd (ADI-76359 [7]): 0.059 nM; Kd (ADI-26920 IgG [8]): 0.088 nM; Kd (ADI-26921 IgG [9]): 0.048 nM; Kd (ADI-74967 [10]): 0.12 nM

Source: US20250019439A1 (Adimab, published 2025)
